Here are results for two molecules from patent US20140140998A1 (LUDWIG INSTITUTE FOR CANCER RESEARCH, published 2014).

Test [1] has as its target T1, tumor necrosis factor alpha converting enzyme (TACE), endogenous (human, UniProt P78536 215-824).
T1 construct: whole, on cells; also called ADAM17
Put plainly: co-immunofluorescence (co-localisation) in PC-3U cells.
Description: Panel e: PC-3U cells were treated with or without TGFβ for 30 min as indicated. […] Their colocalization is shown by the yellow color, as shown in merged images. The images on the left are enlarged from the areas enclosed in white boxes in the images to the right. DAPI staining was performed to detect cell nuclei (blue).

The target of test [2] is Presenilin 1 (PS1), endogenous (human, UniProt P49768 1-467). Put plainly: co-immunoprecipitation from transfected PC-3U cells.

Changes are numbered by the printed parent chain. Names and notes keep the numbering of the source.

T1 sequence (P78536 215-824): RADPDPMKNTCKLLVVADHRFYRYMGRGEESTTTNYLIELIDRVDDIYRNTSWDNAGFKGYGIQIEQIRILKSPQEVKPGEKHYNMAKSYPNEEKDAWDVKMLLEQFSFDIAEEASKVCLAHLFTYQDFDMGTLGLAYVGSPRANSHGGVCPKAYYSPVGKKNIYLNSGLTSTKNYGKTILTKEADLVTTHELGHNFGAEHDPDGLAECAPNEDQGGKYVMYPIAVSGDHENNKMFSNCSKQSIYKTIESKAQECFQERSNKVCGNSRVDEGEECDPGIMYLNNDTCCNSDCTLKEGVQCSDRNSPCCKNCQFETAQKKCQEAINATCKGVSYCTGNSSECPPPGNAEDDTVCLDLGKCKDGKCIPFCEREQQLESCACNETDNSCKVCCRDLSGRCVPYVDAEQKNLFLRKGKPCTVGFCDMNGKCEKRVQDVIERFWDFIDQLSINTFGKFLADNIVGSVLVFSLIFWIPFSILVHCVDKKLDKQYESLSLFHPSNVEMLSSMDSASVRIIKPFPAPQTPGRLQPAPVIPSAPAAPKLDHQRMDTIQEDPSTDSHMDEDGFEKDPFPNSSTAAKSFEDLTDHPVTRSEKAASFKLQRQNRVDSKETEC

B1: type I receptor of transforming growth factor beta (TβRI), endogenous, full length (receptor)
chain: LQCFCHLCTKDNFTCVTDGLCFVSVTETTDKVIHNSMCIAEIDLIPRDRPFVCAPSSKTGSVTTTYCCNQDHCNKIELPTTVKSSPGLGPVELAAVIAGPVCFVCISLMLMVYICHNRTVIHHRVPNEEDPSLDRPFISEGTTLKDLIYDMTTSGSGSGLPLLVQRTIARTIVLQESIGKGRFGEVWRGKWRGEEVAVKIFSSREERSWFREAEIYQTVMLRHENILGFIAADNKDNGTWTQLWLVSDYHEHGSLFDYLNRYTVTVEGMIKLALSTASGLAHLHMEIVGTQGKPAIAHRDLKSKNILVKKNGTCCIADLGLAVRHDSATDTIDIAPNHRVGTKRYMAPEVLDDSINMKHFESFKRADIYAMGLVFWEIARRCSIGGIHEDYQLPYYDLVPSDPSVEEMRKVVCEQKLRPNIPNRWQSCEALRVMAKIMRECWYANGAARLTALRIKKTLSQLSQQEGIKM
notes: Endogenous receptor of human PC-3U prostate cancer cells, studied in cell lysates, cell fractions and fixed cells; also called TβRI-FL; ALK5
With B1, in test [1], the binding result is recorded as “binds”.

B2: HA-tagged caE161A TβRI mutant (HA-ca E161A) (receptor)
chain: B1 chain with E128A, T171D
notes: Expressed by transient transfection in PC-3U cells; also called HA-E161A; E161A mutant; not shown: HA tag fused to the C-terminus
Take B2: the binding result in test [2] is given as “no binding”.
